In article PMC11546610, “Molecular Modeling and In Vitro Functional Analysis of the RGS12 PDZ Domain Variant Associated with High-Penetrance Familial Bipolar Disorder” (International Journal of Molecular Sciences, 2024):
No end group written: not given here. *: point of attachment. Biotin = O=C1N[C@H]2[C@H](CS[C@H]2CCCCC(=O)*)N1; Ahx = NCCCCCC(=O)O

Legend:
[1] = system: wildtype RGS12 PDZ domain; details: prior SPR assays; ref [19],[42],[65]; cited from earlier work
From the text: Table 1 Heat map of GLIDE SP-peptide and GLIDE XP scores for predicted docking of four pentameric ligands into the ligand-binding “receptor grid” specified for each of the 20 low-energy structural models (“poses”) of the human RGS12 PDZ domain recorded within PDB id 2KV8. […] Each of the three C-tail ligands was synthesized as an N-terminally biotin-tagged polypeptide and used to create gold nanoparticle biosensors for measuring the binding of these recombinant GST-RGS12 PDZ domain fus ...

[2] = system: recombinant RGS12 PDZ domain protein; details: biotinylated peptide immobilized on streptavidin chip to 350 RU; 10 mM HEPES pH 7.4, 250 mM NaCl, 0.05% Nonidet P-40, 50 μM EDTA; analyte 300 μM (10 nM to 500 μM); mNotch1 surface subtracted
Protocol: Optical detection of real-time protein–peptide interactions by surface plasmon resonance was performed using a Biacore 3000 (Cytiva; Marlborough, MA, USA), as per previously described methods [65, 105, 106]. Briefly, biotinylated peptides were separately immobilized on streptavidin-coated SPR chips (Cytiva) to 350 resonance units (RUs). All experiments were performed with the sensor surface, fluidics, and pump equilibrated with Biacore running buffer (10 mM HEPES pH 7.4, 250 mM NaCl, 0.05% (v/v) Nonidet P-40, and 50 μM EDTA). Increasing concentrations (10 nM to 500 μM) of recombinant RGS12 PDZ domain protein (expressed from E. coli culture and purified as previously described in ref. [65]) were separately injected at a flow rate of 10 μL/min with a 300 s dissociation phase. The surface was regenerated between each test concentration by the injection of a denaturing regeneration buffer (1 M NaCl, 50 mM NaOH). Non-specific binding to a biotinylated mNotch1 peptide-bound streptavidin surface was subtracted from each curve (BIA-evaluation Version 3.0 software, Cytiva). Maximal response units for each injection were plotted using GraphPad Prism 5.0.

[3] = biological target: T1, R59Q-variant RGS12 PDZ domain GST-fusion protein (Homo sapiens, UniProt O14924, R59Q); assay: SPR single-cycle kinetics (Alto), R59Q-variant PDZ domain; type: binding; details: R59Q vs wildtype; peptide biosensors; N = 2-4
T1 construct: human RGS12 PDZ domain (aa 18–101 of UniProt O14924); purchased GenScript; host or cells: E. coli
T1 sequence (O14924 18-101 R59Q): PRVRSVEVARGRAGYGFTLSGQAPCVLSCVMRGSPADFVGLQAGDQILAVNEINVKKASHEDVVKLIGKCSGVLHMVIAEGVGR
Protocol: Wildtype and R59Q-variant versions of the human RGS12 PDZ domain (aa 18–101 of UniProt O14924) were each cloned in frame with an N-terminal glutathione-S-transferase (GST) expression tag, expressed by E. coli fermentation, and purified by GST-affinity column and size-exclusion column chromatographies by GenScript. These recombinant GST-fusion proteins were stored at −80 °C in a storage buffer (150 mM NaCl, 10 mM Tris-HCl pH 7.6, 1 mM EDTA, 5 mM DTT, and 10% glycerol) prior to thawing and supplementation with 0.1% (final) Tween 20 for use in the SPR experiments.
Biotinylated peptides were separately immobilized onto streptavidin-coated gold nanosensor particles (Nicoya) in lane pairs. The reference sensor of the lane held either immobilized mNotch1 or rβ2AR peptide as an established negative control surface, and the test sensor held one of the candidate PDZ domain-interacting peptides. All on-board dilutions and experimental passages of analytes over immobilized peptides were performed with a running buffer consisting of phosphate-buffered saline (137 mM NaCl, 2.7 mM KCl, 4.3 mM disodium phosphate, 1.4 mM monopotassium phosphate; and pH 7.3, from Teknova) supplemented with 0.1% Tween 20 (Nicoya), […] (w/v) bovine serum albumin (BSA; Nicoya), and 3% glycerol (the latter to reduce bulk-shift readings when transitioning from running buffer to protein analyte injections). […] Each sensor was regenerated between each single-stack passage by the injection of a surface regeneration buffer (10 mM NaOH). Non-specific binding to the paired, negative control peptide-bound streptavidin surface was subtracted from each single-stack curve and then binding parameters of the on-rate (ka), off-rate (kd), and dissociation constant (KD) were calculated using the 1:1 Langmuir kinetics model with mass transport limitation (Alto software version 2.3.1; Nicoya). Observed maximal response units (Rmax) and calculated KD values for each single-stack injection were plotted using GraphPad Prism 10.

[4] = system: isolated rat RGS12 PDZ domain (recombinant GST-fusion protein); design: method as in PMID 9651375, PMID 17380122, PMID 11771424; details: C-terminal tail peptide; ref [19],[42],[65]; cited from earlier work
[5] = biological target: T2, R59Q-variant human RGS12 PDZ domain GST-fusion protein (human, UniProt O14924 18-101, R59Q); assay: SPR
T2 sequence: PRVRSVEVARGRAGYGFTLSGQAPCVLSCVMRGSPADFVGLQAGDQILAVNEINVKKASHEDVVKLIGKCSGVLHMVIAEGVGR

[6] = biological target: T3, Wildtype human RGS12 PDZ domain GST-fusion protein (human, UniProt O14924 18-101); assay: SPR
T3 chain: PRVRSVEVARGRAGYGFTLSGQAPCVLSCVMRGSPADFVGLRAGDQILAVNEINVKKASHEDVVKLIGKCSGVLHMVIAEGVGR

[7] = biological target: T4, Wildtype human RGS12 PDZ domain GST-fusion protein (human, UniProt O14924 18-101); assay: SPR; Alto 8 × 2 digital microfluidics SPR (Nicoya); biotinylated peptides immobilised on streptavidin-coated gold nanosensors; GST-RGS12 PDZ fusion protein as analyte, single-cycle kinetics, 111 nM-9 μM; PBS pH 7.3 with 0.1% Tween 20, BSA, 3% glycerol; mNotch1 or rβ2AR reference sensor subtracted; 1:1 Langmuir model with mass transport limitation; apparent rates, estimated KD; details: both partners purified
T4 construct: human RGS12 PDZ domain, aa 18-101 of UniProt O14924; also called GST-RGS12 PDZ domain fusion protein; wildtype PDZ protein; not shown: GST, N-terminal, kept
T4 sequence (looked up): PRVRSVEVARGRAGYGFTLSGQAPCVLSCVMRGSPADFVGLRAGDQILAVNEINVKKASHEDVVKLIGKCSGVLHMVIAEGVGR

[8] = biological target: T2, R59Q-variant human RGS12 PDZ domain …; assay: SPR; remark: listed apart in the source
[9] = biological target: T3, Wildtype human RGS12 PDZ domain …; assay: SPR
[10] = system: HA-epitope tagged RGS12 full-length protein; assay: Co-immunoprecipitation of RGS12 and SAPAP3 in HEK293T cells; type: binding
Protocol: Monolayer cultures of the immortalized human embryonic kidney cell line HEK293T (ATCC CRL-3216) were transfected at 75–90% confluence using FuGENE6 transfection reagent (Promega; Madison, WI, USA), according to the manufacturer’s instructions, with 0.5 μg of pcDNA3.1-Flag-SAPAP3 expression plasmid DNA and/or 0.5 μg of pcDNA3.1-HA-RGS12 expression plasmid DNA [103]. Forty-eight hours later, the transfected cells were lysed with ice-cold Triton-X lysis buffer (20 mM Tris-HCl pH 7.5, 150 mM NaCl, 1 mM EDTA, 1 mM EGTA, and 1% Triton X-100, supplemented with protease inhibitors). The lysates were clarified by centrifugation (16,000× g) and then incubated overnight at 4 °C with […] of HA- or Flag-epitope tag-specific antibody followed by precipitation with protein-A/G beads (Santa Cruz Biotechnology; Dallas, TX, USA). The beads were washed 3 times with ice-cold lysis buffer and the proteins were eluted in Laemmli buffer. The samples were resolved on 4–12% precast SDS-polyacrylamide gels (Novex/Invitrogen; ThermoFisher Scientific, Waltham, MA, USA), transferred to nitrocellulose, and immunoblotted with horseradish peroxidase (HRP)-conjugated primary antibodies to HA- or Flag-epitope tags and visualized by ECL chemiluminescence (GE Healthcare; Chicago, IL, USA).

For “biotin-Ahx-PSQITHIPEAFK-carboxylic acid [mouse Notch1]”, the “binding of negative control to RGS12 PDZ domain (in words)” value [1] is given as “no demonstrable affinity”.

For biotin-NH-SATESADSIEIYIPEAQSRL-amide, the “SPR binding of recombinant RGS12 PDZ domain (in words)” value [2] was “no appreciable binding”.

In the case of “biotin-Ahx-RTLRLKQPSTPTRTAV-carboxylic acid [TRTAV-COOH of MEK2]”, the “KD of R59Q variant relative to wildtype (fold less than the wildtype)” value [3] is reported as “at least 2 fold” and the “maximal binding signal (Rmax), R59Q in comparison to wildtype” value [3] is reported as “less maximal binding signal (Rmax)”.

For “biotin-NH-SATESADSIEIYIPEAQTRL-carboxylic acid”, the “SPR binding of recombinant RGS12 PDZ domain (in words)” value [2] was “bound specifically”.

In the case of “VGSSSANTSTTL-OH [C-terminal tail of rat CXCR2, 12-mer]”, the “SPR binding to rat RGS12 PDZ domain (in words)” value [4] is listed as “direct and selective binding”.

In the case of “RTLRLKQPSTPTRTAV-OH [C-terminal tail of rat MEK2, 16-mer]”, the “SPR binding to rat RGS12 PDZ domain (in words)” value [4] is given as “direct and selective binding”.

In the case of “biotin-Ahx-QGRNCNTNDSPL-carboxylic acid [rat beta2-adrenergic receptor]”, the “binding of negative control to RGS12 PDZ domain (in words)” value [1] is listed as “no demonstrable affinity”.

B1: CXCR2 C-terminal peptide, biotin-Ahx-VGSSSGHTSTTL-carboxylic acid (peptide)
peptide: {Biotin-Ahx}-VGSSSGHTSTTL-OH
SMILES: CC(C)C[C@H](NC(=O)[C@@H](NC(=O)[C@@H](NC(=O)[C@H](CO)NC(=O)[C@@H](NC(=O)[C@H](Cc1c[nH]cn1)NC(=O)CNC(=O)[C@H](CO)NC(=O)[C@H](CO)NC(=O)[C@H](CO)NC(=O)CNC(=O)[C@@H](NC(=O)CCCCCNC(=O)CCCC[C@@H]1SC[C@@H]2NC(=O)N[C@@H]21)C(C)C)[C@@H](C)O)[C@@H](C)O)[C@@H](C)O)C(=O)O
notes: C-terminus of CXCR2; also called CXCR2 C-tail peptide TSTTL-COOH; CXCR2 TSTTL-COOH biosensor; source: synthetic peptide (GenScript)
For B1, the koff [5] was 0.00193 s⁻¹, the koff [6] was 0.000542 s⁻¹ and the binding result [7] was “binds”. It also gave a Kd [8] of 1280 nM and a Kd [9] of 450 nM.

B2: MEK2 C-terminal peptide, biotin-Ahx-RTLRLKQPSTPTRTAV-carboxylic acid (peptide)
peptide: {Biotin-Ahx}-RTLRLKQPSTPTRTAV-OH
SMILES: CC(C)C[C@H](NC(=O)[C@H](CCCNC(=N)N)NC(=O)[C@H](CC(C)C)NC(=O)[C@@H](NC(=O)[C@H](CCCNC(=N)N)NC(=O)CCCCCNC(=O)CCCC[C@@H]1SC[C@@H]2NC(=O)N[C@@H]21)[C@@H](C)O)C(=O)N[C@@H](CCCCN)C(=O)N[C@@H](CCC(N)=O)C(=O)N1CCC[C@H]1C(=O)N[C@@H](CO)C(=O)N[C@H](C(=O)N1CCC[C@H]1C(=O)N[C@H](C(=O)N[C@@H](CCCNC(=N)N)C(=O)N[C@H](C(=O)N[C@@H](C)C(=O)N[C@H](C(=O)O)C(C)C)[C@@H](C)O)[C@@H](C)O)[C@@H](C)O
notes: C-terminus of MEK2; also called MEK2 C-tail; TRTAV-COOH of MEK2; source: synthetic peptide (GenScript)
B2: binds [7].

B3: SAPAP3 C-terminal peptide, biotin-Ahx-IYIPEAQTRL-carboxylic acid (peptide)
peptide: {Biotin-Ahx}-IYIPEAQTRL-OH
SMILES: CC[C@H](C)[C@H](NC(=O)CCCCCNC(=O)CCCC[C@@H]1SC[C@@H]2NC(=O)N[C@@H]21)C(=O)N[C@@H](Cc1ccc(O)cc1)C(=O)N[C@H](C(=O)N1CCC[C@H]1C(=O)N[C@@H](CCC(=O)O)C(=O)N[C@@H](C)C(=O)N[C@@H](CCC(N)=O)C(=O)N[C@H](C(=O)N[C@@H](CCCNC(=N)N)C(=O)N[C@@H](CC(C)C)C(=O)O)[C@@H](C)O)[C@@H](C)CC
notes: C-terminus of SAPAP3; the last ten residues of the human 20-mer aa 960-979; also called SAPAP3 C-tail peptide AQTRL-COOH; source: synthetic peptide (GenScript)
For B3, the koff [5] was 0.00923 s⁻¹, the koff [6] was 0.000383 s⁻¹ and the binding result [7] was “binds”. It also gave a Kd [8] of 600 nM and a Kd [9] of 260 nM.

B4: Flag-epitope tagged SAPAP3: Flag-epitope tagged SAPAP3 full-length protein expressed in HEK293T cells (protein, UniProt O95886 1-979, looked up)
chain: MRGYHGDRGSHPRPARFADQQHMDVGPAARAPYLLGSREAFSTEPRFCAPRAGLGHISPEGPLSLSEGPSVGPEGGPAGAGVGGGSSTFPRMYPGQGPFDTCEDCVGHPQGKGAPRLPPTLLDQFEKQLPVQQDGFHTLPYQRGPAGAGPGPAPGTGTAPEPRSESPSRIRHLVHSVQKLFAKSHSLEAPGKRDYNGPKAEGRGGSGGDSYPGPGSGGPHTSHHHHHHHHHHHHQSRHGKRSKSKDRKGDGRHQAKSTGWWSSDDNLDSDSGFLAGGRPPGEPGGPFCLEGPDGSYRDLSFKGRSGGSEGRCLACTGMSMSLDGQSVKRSAWHTMMVSQGRDGYPGAGPGKGLLGPETKAKARTYHYLQVPQDDWGGYPTGGKDGEIPCRRMRSGSYIKAMGDEESGDSDGSPKTSPKAVARRFTTRRSSSVDQARINCCVPPRIHPRSSIPGYSRSLTTGQLSDELNQQLEAVCGSVFGELESQAVDALDLPGCFRMRSHSYLRAIQAGCSQDDDCLPLLATPAAVSGRPGSSFNFRKAPPPIPPGSQAPPRISITAQSSTDSAHESFTAAEGPARRCSSADGLDGPAMGARTLELAPVPPRASPKPPTLIIKTIPGREELRSLARQRKWRPSIGVQVETISDSDTENRSRREFHSIGVQVEEDKRRARFKRSNSVTAGVQADLELEGLAGLATVATEDKALQFGRSFQRHASEPQPGPRAPTYSVFRTVHTQGQWAYREGYPLPYEPPATDGSPGPAPAPTPGPGAGRRDSWIERGSRSLPDSGRASPCPRDGEWFIKMLRAEVEKLEHWCQQMEREAEDYELPEEILEKIRSAVGSTQLLLSQKVQQFFRLCQQSMDPTAFPVPTFQDLAGFWDLLQLSIEDVTLKFLELQQLKANSWKLLEPKEEKKVPPPIPKKPLRGRGVPVKERSLDSVDRQRQEARKRLLAAKRAASFRHSSATESADSIEIYIPEAQTRL
modifications: full-length Flag epitope tag
In the case of B4, the co-immunoprecipitation ([10]; IP with anti-Flag antibody, Triton-X lysis buffer pH 7.5) is reported as “co-immuno-precipitate” and the reciprocal co-immunoprecipitation ([10]; IP with anti-HA antibody) is reported as “reciprocal co-immunoprecipitation”.
